The DeepSol protein solubility set

Assay: soluble on expression in E. coli; label from the status in PepcDB or PDB records

Sequence	soluble on expression in E. coli
MSKKIRTEAVDYLFDAILSLKDKEECYTFFEDICTINELLSLSQRFEVAKMLREQKTYLEIAEKTGASTATISRVNRSLNYGNDGYDMVFERMEK	not soluble
MTELARLKFYATQPHSCSYLPDEQATTLFLDPSQPMDVHVYADLSEMGFRRSGDHLYRPHCQNCNACVPARIPATQFLPSRQQKRIIKRNSDLTVHAAKPCFSEEYFDLYQRYIEQRHADGDMFPPSRDQFSTFLVRDLPFSRFYEFRLDGRLLAVAVTDLLPNGLSAVYTFYEPDEERRSLGRFAILWQIGETLRLGLDAVYLGYWIKNCKKMNYKTQYRPIELLVNQRWVILNLEHHHHHH	not soluble
QPKTFTVRIVTMDAEMEFNCEMKWKGKDLFDLVCRTLGLRETWFFGLQYTIKDTVAWLKMDKKVLDHDVSKEEPVTFHFLAKFYPENAEEELVQEITQHLFFLQVKKQILDEKVYCPPEASVLLASYAVQAKYGDYDPSVHKRGFLAQEELLPKRVINLYQMTPEMWEERITAWYAEHRGRARDEAEMEYLKIAQDLEMYGVNYFTIRNKKGTELLLGVDALGLHIYDPENRLTPKISFPWNEIRNISYSDKEFTIKPLDKKIDVFKFNSSKLRVNKLILQLCIGNHDLFMRRRKADSLEVQQMKAQAREEKARKQMERQRLA	soluble
MHLSPESLEAFVQAVSLGSFSAAARKLGKSQSTVSEAIARLEIDLGLELFDRSGRQPQLTEAGRTLLGRVEEVLGASDRLRRVAALLAGGSEPRVTLALSDTYHSARYEARLAELDERYPELEFECLIAEDQDVIAQVSRGRATLGLLAAQPHYPPELGVAAVAERAEFGLFAAVDHPLAGLERVSERDLSEWRLLRLNTYSETGAAINDGLPSSGGRCWSAPNYLLLLEMATHGFGWAELPRWLVSGYANGRLKELPVSGWPRSQAVDVVWSRQRPLGPAANWLLDRLLDRDLPI	not soluble
MGSDKIHHHHHHMAKSALRVLEIMEFVATHKAGCATHTEISQALGIPKSSLTALLTDLQRPGYLELDRETGRYAIGSQVMFLAHAYLRNLNIVRLGTPVVHDVFLKLNVYTTMVIPKGDMCLVVCSESLPSPLAHSLSIGQHIPMLHSALGRAILAFLEPEEVERFLHDYTPTPYTDRTKTGIEEVRKALAQVRKAGFAHMQGEYLPGIIGIAVPVFNLENRPIAAIGIGIPAVEGTTEFEKRICKQLLHSADTLSRRLGAKLKPTPSKLLRKGEEE	not soluble
MNALLVMTGLAAAASGRIGAACSALLGGGAVRGRSAGASGDEAQAQDADSSPEADRLEDVSPSGAFAGVIAALEVQAPVRDVPPPTDDLANEGEDIARSRVAATAADAVTSGGAARSPRDALGGLAFGQSPMIEAGKALYVSPVRDDERLRNGERFRDGERLRDGADGARAGMRDAASAAGAASTSRVGQPGAGAPRDQQALSQSPGQQAADKPPAGAPGPQEGTIGAPVDMPRAAARAHSPQSAPVRLGAELMSVLGERIDVQLQRGVERAVIRLDPQSMGTLHIAIRHEGGSVQIQMIASHEEVARQLQTMSEALRQDLSSRHHGDVTVVVRHGQGMEQGAGHGEGGAHREEKRPGAALAEADVPDGDDGFRLDGRDVI	not soluble
AIAAQEENKRLVVVVPNEMTVPSRRAFTSEDEAWKSYLENPLTAATKAMMSINGDEDSVAALGILYDYYKVPKEKRLLPVHKLPEDHEKSRISQDGLESAENRIHVLKSLPVNLSLNPDSENKQDLFGTVPAEDGVVATVKPEVYAQSFSSHHQQLHYHRTPYHPHLQDSVSVSHDRYMKDDQCSTPDSTFEDSYPEDPMRYRVPTTPAAEDFTHEQAGLNMFQYNIEASRSVREKAADGPMVYLNKGQFYGITLSETGANKGLRHPISKVRTVVMVVFGQEKCRDEQLKHWNYWHTRQHTAKQRVLDIADYKESFNTIGNIEEIAYNAVSFTWDPAAVHKSFCASVILL	soluble
MAHHHHHHMTEKENGNKDKRRKEKHRKHHRDRRESCNGVVNSSAAKTRPETAVAIEGADEEVENWDENRTRVDQLCQTYPNNMCNDCNNAGTRWASVNHGVFLCIRCSGIHRSLGVHVSKVKSANMDKWSAAEVHLMELIGNQRAKLLYEAHLPKDMKPMTFAESDATLQTFIQRKYQEKAFSVEAVDEKLRQYHKEARYGKKPKRNSSASRKKKANDGANDKAERSLKGEDTIKALYGSNAEVISKMSKRTGPIRGTFGVVNVGPEAYDERRKTLLEQFGFS	not soluble
MLYAATRATLKKEFGGGHIKDEVFGTVKEDVSLHGYKKYLLSQSSPAPLTAAEEELRQIKINEVQTDVGVDTKHQTLQGVAFPISREAFQALEKLNNRQLNYVQLEIDIKNEIIILANTTNTELKDLPKRIPKDSARYHFFLYKHSHEGDYLESIVFIYSMPGYTCSIRERMLYSSCKSRLLEIVERQLQMDVIRKIEIDNGDELTADFLYEEVHPKQHAHKQSFAKPKGPAGKRGIRRLIRGPAETEATTD	soluble
MKFDTIINQPVIETERFDLRPLRKSDMGLIEHYARDERVARMTTSIPHPLPPGMAEGFVARAMSEERTEDVWAMDATRDGGPELMGLISLERMDRNQSEVGYWVAPVFWNTGIASMAVEALVNANPLGNATMFASVFQDNPASARVLTHCGFQYLGDAESYSVARDAAVPTWTYSRKL	not soluble
MGSDKIHHHHHHMTEKWLSIVGIGEDGLQGLSAIARSLVDRAKVIVGGDRHLAMLPTDDQREKIVWTSPISISVDEIIQRRGQSICVLASGDPMCYGIGVTLMRRIPVSEMTIIPAPSAFSLACARMGWSLTEVETLSLNGRPSSLLQSYIYPKARLLILSGGKDTPAIVAKILTNRGYGGSEITVLERMGGTHERIVEGTAASWSETEVAALNAIAVYCIADAGVIPLPRLPGLPDNAYHHDGQLTKREVRAITLAALAPTPGQLLWDVGAGCGSISIEWMRSNARCRAIAIEQNSSRLLYIADNAATLGTPNVQIIEGKAPHALKDLPAPDAIFIGGGVTATGLFDVCWEALRPGGRLVANVVTVEGEQTLFQWHERVGGDLTRVAIQRTEPIGKFLGWRAMAPVTQWVVVK	not soluble
DDSCQIGTSFTGLDMTKYVGTWYELFRTPNSDEEDFTNCEYDKYTLDENGVIQVTSVAYTNSIRGFITSTGTVPSWTEDTFDIAYGDDETWSSTYFMVGTDYQTYSIVAGCLDNDYSRHLYWIASHETSFDDATKAKVNEVLAPYNLSLDDMEPVDQSYCVQY	soluble
RQLTVLERVAPTITGNLENQTTSIGESIEVSCTASGNPPPQIMWFKDNETLVEDSGIVLKDGNRNLTIRRVRKEDEGLYTCQACSVLGCAKVEAFFIIEGAQEKTNLE	soluble
MGSDKIHHHHHHMAKIFDIKYGNDEKQKLDLYLQDSVAPLVFYTHGGGWWQGDKRKDTKIFDSLFSAGFSVASVNYRLADKNNPYPAQLDDCHSALTFLQQSDYKFRKDKIALLGASSGANISVSLSIETGYPTVSWSGQFDFKGFLKTHTAITGRKAVDNPDPDKGSRQQSYYKWLLEKLFNGDLSRVGEATLQHKITSKTGPVLLINSAAELAPVMEVYKMQEAYLENGIEVDTIIFPGDRHALGYADDALKPTIDFLETHLQ	not soluble
MSVITPTSSIAANDHRAQFLGLLDTSLSQNSLIKLVLAKYVGSEADLQRIIIKPLTVKEQPCLSFVYRYKTRDITKNFPLAEAVAVIASLIPESFKNAHLLSLSDEVQLEYSKKGKTTLFKSKAQQEREAPSAGHDREKKRYLELSRPFLADLGVTNRQHELIPAMSRKWKQINKFIEVFSHALSSSSLKLDQPIKVADFGSGKGYLTFAIHDYLCNTLQAQGQVTGVELREDMVTLCNNAAAGLEHPGLTFQHGDVRSVAPRALDVMIALHACDIATDYAIHMGIRSGASIIMCSPCCHKQIRLQIQSPSLLKPMLQYGLHMGQQAEMVTDSLRALLLDACGYETKVFEFISLEHTNKNKMILAVKRAEPANPAQLLVRIQELKAFYGISEQCLETLLQADGFLG	not soluble
SLLAMPSAISVAVLPDSPHAREMATKAHNSGHEVLIHLPMAPLSKQPLEKNTLRPEMSSDEIERIIRSAVNNVPYAVGINNHMGSKMTSNLFGMQKVMQALERYNLYFLDSVTIGNTQAMRAAQGTGVKVIKRKVFLDDSQNEADIRVQFNRAIDLARRNGSTIAIGHPHPSTVRVLQQMVYNLPPDITLVKASSLLNEPQVDTSTPPKNAVPDAPRNPFRGVKLCKPKKPIEPVYANRFFEVLSESISQSTLIVYFQHQWQGWGKQPEAAKFNASAN	soluble
MNLFASEIFVFTPKGEIKTMPQNCTALDFAFSIHTFLGSHCIGAKVNHKLVPLSHKLQSGDQVEILTSKSQHVQPLEHHHHHH	not soluble
MSSGFGGEKEEEITQKTAKSSEKAIVPKYNISDSYYKMVLPFKAGKARGLTTEQLNTRLDIDEFETGLMRLAQDSFSTDDYLFQEGQYLDEDTVLSWLARKKTGSDLKKAEKEDKNFKNEGLNPALPSSGSTEEKNESSPIYLASMLEHDYLVRKDKNSIQLGGVMIGLALNSVYYYREKTGDPQKEVEIKDSTLRQQGEKIAQEVINRLRKKDNLKNVPITVALYKQASKTSIVPGNFIAKTEVKAGSTDISNWDDINEKYVFYPADTTTAEKYPDDTEVFKRFKNSIEEYFPNYTGVVGTALYENDEMKKMKIDIPMQFYGKSEVVAFTQFLTGEVMDYYSKSSVDVEVNITSSDGQEAVIIRNAGDKEPTVHIYDLEHHHHHH	soluble
MHVTLVEINVHEDKVDEFIEVFRQNHLGSVQEEGNLRFDVLQDPEVNSRFYIYEAYKDEDAVAFHKTTPHYKTCVAKLESLMTGPRKKRLFNGLMP	soluble
VFADKLDITVDQKKIILPYWLSRPVSYGAVIIVSGGETAQWSLLLEQFAKGLARNGWSVVLLNCTKNNSIPWINQLPEVISTLRQNNNKRIVLVHYGDQLNLALEYFSKPQSKMINGLVMLSAYDLNRNLQKVPRLRFPLFDIVGQFDYDMVRQQRKSREEKFKENSYLAIDIPGATHDYQYSQQLLLAFVHGWM	not soluble
MGSDKIHHHHHHMTVCIACGSTKVEPFLDLHETTLANKFLAPEEIGAVEPRHPLVVGFCPECSHVQLTHLVPPAAMFEDYLYISSLSKTLVGHLHGLAATVIERFKLGADDLFIDVGCNDGTLLSEAKRRGVRILGIDPAKNLAPLAKKNGVDTLVAFFGTETAAKVVAEHGKASVVTATNVFPHIPVLDDLVKGLDVVLKPGGVFVAEAHYLGDLLDACAFDTVYHEHCSYWSLHAAQYMFQRHGFEVVDIQRLPIHHGQLRLFAMRKGEGQPTAAVATLLAEEVKRGMTGIECYRAFAKRVEAIREELHAAFAGFKAAGKTVVGYGAPAKGNTLLSYIGFGPEQLAYIADKSPLKQGRVTPGTHIPVVGPERLLADQPDYVLLLAWNFADEILVEQAEYRARGGKFILPVPEVKIV	not soluble
MAIQTVSTKPFANQKPGTSGLRNKVIAFQQPRYLENFVQSIFNSLDDIEGKTLVVGGDGRYYNDVAIQIIVRMAAANGFAKIIVGQNGIFSTPAVSCVIRKYEAFGGIVLSASHNPGGPKGDFGIKYNVSNGGPAPEKITDRIFSETKKINQYFISDAAKESVDLDKLGTYKIENTTVEVINSVIDYAELMQQIFDFDKVRELFAKGFKVRFDSMCAVSGPYAKYIFETLLKAPAGTVVNAQPLEDFGGFHPDPNPVNAEDLVKHMRSGKYDFGAASDGDADRNMIVGKQIDVSPSDSLAIMAANAHLIPVYSKGIKGVARSMPTSTAVDRVAESLRLPCFETPTGWKFFGNLLDAEKITLCGEESYGTGSNHIREKDGVWAVLFWLNLVAVTGKQVDQLVEEHWQKFGRNFYSRHDYEAIDTAIANSIIDSLRERLSSLVGAQLNDEKVAKADDFSYIDPIDGLVSNHQGIRIIFEDGSRIVFRLSGTGTQGATLRIYLEKYESDSSKFSIPTQQALASLIEIAEDLTNIKSLTGMTEPTVVT	not soluble
